From paper PMC3558616 (Molecular microbiology, 2012)

Biological target: the molecule itself
Assay: SEC

B1: HvJAMM2 (Haloferax volcanii JAMM/MPN+ domain protein, HVO_1016), His6-tagged (natural protein, UniProt D4GVJ3 1-161, looked up)
chain: MRLFRSREVVGIAADALDFALEASAETHPNEYMGLLRGEEARRVGVDRDGYVVTDVLIIPGTVSDPYSATVRNDLVPNDFHAVGSIHSHPNGVLRPSDADLDTFGSGRVHIIIGSPYGPDDWEAFDQSGEVRDLDVLDADLSDPESFFDFTQDDIDAELDR
- stoichiometry N: 2
